Results taken from the domain aggregation screens of Martell et al. (2025).

assay: soluble fraction after stress (log2 fold change); higher = more stays soluble; pooled small domains, quantitative proteomics; details: stress: 50 degC
How it was run: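 Pooled custom libraries of small protein domains were each held under stress at 50°C. The read-out, high-throughput quantitative proteomics, tracked how much of each protein stayed soluble. This is reported as a base-two log fold change used to indicate aggregation propensity. Higher values mean more protein remains in solution.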

Sequence | soluble fraction (log2)
HMSSLTQREYEIAELVADGLSNKAIAAELSISHTTAARHVANIMNKLGFNSRSQIAAWVADRAQG | 0.11
HMIRSNLAEQAYAQLKALIHDFQLLPGDRFSENEMGTRLGVSRTPVREALFRLRNEGFLEVESKAGWYVK | -2.38
HMDDGALQIRLGPQALQQRLDKLGYSLNKEDLDLVYQYFLHSADSKGAVYDQELRELMGEAGVE | -0.0408
HMSRDYKTELQERLQVNGPVKIEYQVIAEDESKPSFKVQLLVNDKKISEGQGRNKKAAEQQAAQAAL | 0.0625
HMFDKVSVNNLAEAIGRLDGIYQDVLRLYYVHELPSKEIGKILNINHLTVNTRLKRAREKLFKMLKEE | -2.57
HMNGSVLVTGGSVWIRAGASKETDGLGIVHKGDVLKRSGSDASGWRGVVYEGQNAFISAKYSSI | -0.916
HMDLEMLEVEDTIKDLLSQHQKINAIKYYRNYMSEQLNVDMGLRQAKDTIDAIGRGATVDLSVGY | -0.0705
HMITALLPGTVLIREFDGRDYHVTVATDGRFEMDGHKYPSLSAVAKHITGTQWSGPAFFGLN | -1.75
HMAPRLTERERQVLQLIAEGLTSMQIGDRLHIAASTVDVHRRNLMRKLDLHNVADLTRYAITQGISP | -0.0624
HMTGINMSYEEYKAMADIIVPLIKAGHSPYHIVTNHPELNISEKTLYNYIENGIFREFGLLDINL | -0.313
HMRIVQTDYRNFLSQVESGAVRSVQIDETQIRYTALDSGGKEIVYNTGKVDDPGLVNRLYDAGVEFSQVIP | 0.0657
HMLDTELEANLRSQRDQKLVEELDPIVTNPLRWAELTSDKQTEWTQYRTDLLNVPQQSGFPTNVTWPEKP | 0.212
HMEPDTVVVPNFVGKVYASEIEGNEAYSDFTFVIKEGNDPEQDIGVVLKQTPNEGLEVKKGKEITLTINQ | -0.0593
HMSDEAGKVLQLLRENGGYLPYNDRSDPEDIYAFFSMSKKTFKMTAGNLYKQKKIIFTNTGIKLTE | -0.856
HMTLVSALDQKTKDSAYYRGTYLAGKISAGKMTKQEAVADIMKNYDGNTAAMKVAAEKAGVSDLLSQTVL | 0.234
HMIQMRVKVPKNIAGGSLMGAHHFVKSALARTNPGGSTSNYKIQATDGTPLTLGDLTARQYDEVLIISG | 0.0101

Sequence | soluble fraction (log2)
HMAISEAERARLQTKIKERNKMARWINTNLNPTSKIRNINPAETVRKLMTQDDADSLERSLDAFMEA | -0.0378
HMKTYSEAQLKIALESLIENGKKQGYLTFQEINEILPDGIINTQDLKVIISILKETGIVVAKEKPEINIDV | 0.0784
HMSVETSDLLPLIEQVLSLNPDKVKEYQNGKKGLLGFFMGQIKQTAGVAIDVGTLKPLLEDALHKDL | -0.493
HMLAVEKIEFVGNERIAAADLESALSALYDRPMTTISDDEIAKLLSGFSLIETFTSQAEPPHTLRVNIRE | -0.141
HMDPTEPLFVGVVTAEPYLNIREYPTTQSKDLGDLFPGMHVNVYEIVPNWYRIDDGWVASAWVKRDWGGG | -1.2
HMSQLYINATDDGWVIGNLPADAREVLLTTLGGQVVARYHVTAPSLRVKAPRKGVYIVSVETA | -1.12
HMDPVATLTPREREVLELMAEGRTNAGIAEAMVVTEGAVEKHIQRIFAKLGLHADGGVHRRVAAVLALLG | -1.01
HMEIIFVEHKVRPGESVWLIARKYKVKKNHILAVNNLSEKSIIRPKQILKIPTSGYDQYKKSVE | -3.22
HMAEVIYGAGKTPAQMLGILRTMQAHGQKTVLITRLREEAAEEIGREIPLQYDKTAGVGIVGTLPQPDG | -0.0493
HMRAGHDFEALKHIESSLDKHLTDEGIKIKSEKRGAIVARWYQSHVEGREVTDDDVHTWIELFF | -3.5
HMIDTPQELARLLRLLDEQNFEAEILFHKLRPDLLHLWSKEHVTRIAEALDAFDYQMALTLLNASP | -2.23
HMGIAEGSSVFVRVLAAEDGGRYTVSFAGRRFSVLSRQALGIGSAFRADVKVEKGQVLLVPR | -2.37
HMEHAETDTRERILVVAERLFRQLGYQKTTVADIAKELRMSPANVYRFFDSKKSIHEGVARTL | -0.228
HMVVPRSFKYEVLAHGGWAGNAQRYQTKEEALHAGLALSRRWTAVEDYRAVPSDDLPNQPAL | -0.259
HMEIDDPWLILGINAGSSIEIAQKAWKDLASQNHPDKLIANGVPKELLGMANEKLAIINGAYDKILKAHKI | -0.262
